{"source": "the Immune Epitope Database (IEDB)", "experiment_in_all_cases": "IEDB peptide-MHC binding, purified MHC/competitive/radioactivity; ≥ and ≤ were set here for values at or beyond the usual limits of such assays", "conditions_in_all_cases": "source organism: hepatitis C virus genotype 1a", "key": {"HLA-A*02:01": {"biological_target": "HLA-A*02:01"}, "HLA-B*07:02": {"biological_target": "HLA-B*07:02"}, "HLA-B*08:01": {"biological_target": "HLA-B*08:01"}, "HLA-B*40:01": {"biological_target": "HLA-B*40:01"}, "HLA-B*40:02": {"biological_target": "HLA-B*40:02"}}}
{"sequence": "FLVGQLFTF", "values": [{"measurement": "IC50", "setting": "HLA-A*02:01", "result": 67, "unit": "nM"}]}
{"sequence": "GVDPNIRTGV", "values": [{"measurement": "IC50", "setting": "HLA-A*02:01", "result": 351, "unit": "nM"}]}
{"sequence": "HPALVFDIT", "values": [{"measurement": "IC50", "setting": "HLA-B*07:02", "result": 160, "unit": "nM"}]}
{"sequence": "HSKKKCDEL", "values": [{"measurement": "IC50", "setting": "HLA-B*08:01", "result": 764, "unit": "nM"}]}
{"sequence": "IPFYGKAI", "values": [{"measurement": "IC50", "setting": "HLA-B*07:02", "result": 497, "unit": "nM"}]}
{"sequence": "LEDRDRSEL", "values": [{"measurement": "IC50", "setting": "HLA-B*40:01", "result": 426, "unit": "nM"}, {"measurement": "IC50", "setting": "HLA-B*40:02", "result": 4270, "unit": "nM"}]}
{"sequence": "RLWHYPCTV", "values": [{"measurement": "IC50", "setting": "HLA-A*02:01", "result": 12, "unit": "nM"}]}
{"sequence": "RPALVFDIT", "values": [{"measurement": "IC50", "setting": "HLA-B*07:02", "result": 43, "unit": "nM"}]}
{"sequence": "SLLAPGAKQNV", "values": [{"measurement": "IC50", "setting": "HLA-A*02:01", "result": 513, "unit": "nM"}]}
{"sequence": "VLSDFKTWL", "values": [{"measurement": "IC50", "setting": "HLA-A*02:01", "result": 305, "unit": "nM"}]}
